How the values were obtained:
Test in all cases: holdup assay
Set-up in all cases: key: below the threshold = too weak to quantify, mostly under pKd 3.1 to 4
APBA2_1, Q99767 = target: T1, APBA2_1, Q99767
T1 sequence (Q99767 563-664, limits assumed, looked up): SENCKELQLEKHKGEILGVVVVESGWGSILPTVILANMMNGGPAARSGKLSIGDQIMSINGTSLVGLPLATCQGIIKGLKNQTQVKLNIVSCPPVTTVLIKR

CASK, O14936 = target: CASK, O14936
DFNB31_1, Q9P202 = target: T2, DFNB31_1, Q9P202
T2 sequence (Q9P202 135-233, limits assumed, looked up): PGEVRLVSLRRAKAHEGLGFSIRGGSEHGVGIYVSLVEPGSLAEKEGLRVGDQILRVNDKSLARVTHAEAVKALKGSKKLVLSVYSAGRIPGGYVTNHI

DFNB31_3, Q9P202 = target: T3, DFNB31_3, Q9P202
T3 sequence (Q9P202 811-907, limits assumed, looked up): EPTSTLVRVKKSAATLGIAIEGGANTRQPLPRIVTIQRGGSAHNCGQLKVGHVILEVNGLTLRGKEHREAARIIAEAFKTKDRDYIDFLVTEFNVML

DLG1_1, Q12959 = target: DLG1_1, Q12959
DLG2_2, Q15700 = target: DLG2_2, Q15700
DLG3_1, Q92796 = target: T4, DLG3_1, Q92796
T4 sequence (Q92796 125-227, limits assumed, looked up): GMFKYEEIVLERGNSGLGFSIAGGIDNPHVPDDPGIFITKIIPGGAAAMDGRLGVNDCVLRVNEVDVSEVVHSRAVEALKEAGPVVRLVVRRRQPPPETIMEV

FRMPD2_3, Q68DX3 = target: FRMPD2_3, Q68DX3
GOPC, Q9HD26 = target: GOPC, Q9HD26
GORASP1, Q9BQQ3 = target: GORASP1, Q9BQQ3
HTRA2, O43464 = target: HTRA2, O43464
Inadl_5, Q8NI35 = target: Inadl_5, Q8NI35
Inadl_8, Q8NI35 = target: Inadl_8, Q8NI35
Inadl_9, Q8NI35 = target: Inadl_9, Q8NI35
LDB3, O75112 = target: LDB3, O75112
LIN7C, Q9NUP9 = target: T5, LIN7C, Q9NUP9
T5 sequence (Q9NUP9 88-185, limits assumed, looked up): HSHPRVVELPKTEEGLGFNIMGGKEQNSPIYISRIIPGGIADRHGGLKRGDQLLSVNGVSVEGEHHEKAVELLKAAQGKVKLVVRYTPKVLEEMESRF

LNX2_2, Q8N448 = target: T6, LNX2_2, Q8N448
T6 sequence (Q8N448 334-432, limits assumed, looked up): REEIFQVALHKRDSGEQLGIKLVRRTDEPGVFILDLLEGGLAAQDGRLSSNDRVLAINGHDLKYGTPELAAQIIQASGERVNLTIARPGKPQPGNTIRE

MAGI1_2, Q96QZ7 = target: MAGI1_2, Q96QZ7
MAGI2_2, Q86UL8 = target: MAGI2_2, Q86UL8
MAGI2_6, Q86UL8 = target: MAGI2_6, Q86UL8
MAST1, Q9Y2H9 = target: MAST1, Q9Y2H9
MPP2, Q14168 = target: T7, MPP2, Q14168
T7 sequence (Q14168 180-250, limits assumed, looked up): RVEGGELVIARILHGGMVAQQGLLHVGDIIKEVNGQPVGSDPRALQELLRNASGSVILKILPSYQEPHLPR

MPP6, Q9NZW5 = target: T8, MPP6, Q9NZW5
T8 sequence (Q9NZW5 125-219, limits assumed, looked up): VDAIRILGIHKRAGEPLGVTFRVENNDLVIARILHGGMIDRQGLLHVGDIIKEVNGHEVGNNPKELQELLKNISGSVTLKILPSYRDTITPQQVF

NOS1, P29475 = target: NOS1, P29475
PICK1, Q9NRD5 = target: PICK1, Q9NRD5
PTPN13_1, Q12923 = target: T9, PTPN13_1, Q12923
T9 sequence (Q12923 1088-1188, limits assumed, looked up): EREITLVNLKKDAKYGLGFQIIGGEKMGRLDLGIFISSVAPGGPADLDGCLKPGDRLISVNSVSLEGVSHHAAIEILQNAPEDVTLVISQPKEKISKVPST

PTPN3, P26045 = target: PTPN3, P26045
SNTA1, Q13424 = target: T10, SNTA1, Q13424
T10 sequence (Q13424 82-180, limits assumed, looked up): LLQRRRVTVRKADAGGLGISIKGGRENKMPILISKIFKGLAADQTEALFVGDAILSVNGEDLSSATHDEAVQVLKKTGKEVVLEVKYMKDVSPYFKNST

TJP1_3, Q07157 = target: TJP1_3, Q07157
[1] = plain residues with an end cap or a label only (N-terminal biotin on a linker: ttds)
[2] = plain residues with an end cap or a label only (N-terminal biotin on a linker: ahx)

Chain of Inadl_8, Q8NI35 (Q8NI35 1425-1530): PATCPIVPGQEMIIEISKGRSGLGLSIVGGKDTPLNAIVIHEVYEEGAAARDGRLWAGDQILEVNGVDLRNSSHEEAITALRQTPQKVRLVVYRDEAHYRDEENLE
Chain of CASK, O14936 (O14936 487-570): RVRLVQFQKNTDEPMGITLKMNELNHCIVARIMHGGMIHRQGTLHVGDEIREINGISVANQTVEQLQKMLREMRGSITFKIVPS
Chain of LDB3, O75112 (O75112 1-94): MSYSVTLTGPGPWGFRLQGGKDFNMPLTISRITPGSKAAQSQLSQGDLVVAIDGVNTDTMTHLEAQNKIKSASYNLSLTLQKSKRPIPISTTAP
Chain of MAST1, Q9Y2H9 (Q9Y2H9 962-1065): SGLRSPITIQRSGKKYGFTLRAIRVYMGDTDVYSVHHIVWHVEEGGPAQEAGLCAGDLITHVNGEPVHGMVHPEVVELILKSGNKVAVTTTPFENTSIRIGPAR
Chain of Inadl_9, Q8NI35 (Q8NI35 1530-1615): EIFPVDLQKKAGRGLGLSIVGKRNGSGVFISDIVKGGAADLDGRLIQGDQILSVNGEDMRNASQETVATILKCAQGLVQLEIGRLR
Chain of PICK1, Q9NRD5 (Q9NRD5 17-115): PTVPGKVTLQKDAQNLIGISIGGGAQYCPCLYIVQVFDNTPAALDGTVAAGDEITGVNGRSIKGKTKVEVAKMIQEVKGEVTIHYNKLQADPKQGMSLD
Chain of NOS1, P29475 (P29475 9-101): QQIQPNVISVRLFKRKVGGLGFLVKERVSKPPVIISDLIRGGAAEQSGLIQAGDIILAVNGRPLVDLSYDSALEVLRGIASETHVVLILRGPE
Chain of Inadl_5, Q8NI35 (Q8NI35 673-780): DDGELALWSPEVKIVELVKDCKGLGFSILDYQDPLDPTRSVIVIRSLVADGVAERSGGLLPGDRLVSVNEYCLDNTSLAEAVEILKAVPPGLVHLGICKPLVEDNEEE
Chain of DLG2_2, Q15700 (Q15700 189-283): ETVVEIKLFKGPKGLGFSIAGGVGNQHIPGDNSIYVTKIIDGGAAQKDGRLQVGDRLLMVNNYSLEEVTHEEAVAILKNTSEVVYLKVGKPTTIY
Chain of MAGI2_6, Q86UL8 (Q86UL8 1141-1229): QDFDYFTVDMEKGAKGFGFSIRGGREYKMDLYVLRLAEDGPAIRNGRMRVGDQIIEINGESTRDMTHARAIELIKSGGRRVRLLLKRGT
Chain of FRMPD2_3, Q68DX3 (Q68DX3 1073-1166): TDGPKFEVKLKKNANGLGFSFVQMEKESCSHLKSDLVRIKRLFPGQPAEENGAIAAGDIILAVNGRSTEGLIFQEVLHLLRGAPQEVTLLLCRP
Chain of GORASP1, Q9BQQ3 (Q9BQQ3 1-208): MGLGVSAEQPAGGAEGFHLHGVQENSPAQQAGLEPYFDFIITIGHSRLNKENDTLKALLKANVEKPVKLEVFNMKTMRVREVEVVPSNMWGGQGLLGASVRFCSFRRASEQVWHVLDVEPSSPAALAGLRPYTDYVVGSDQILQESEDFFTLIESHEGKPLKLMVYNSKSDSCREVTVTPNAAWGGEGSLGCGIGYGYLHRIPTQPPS
Chain of PTPN3, P26045 (P26045 505-587): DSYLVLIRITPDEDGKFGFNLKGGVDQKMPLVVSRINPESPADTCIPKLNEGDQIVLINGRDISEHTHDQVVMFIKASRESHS
Chain of HTRA2, O43464 (O43464 355-458): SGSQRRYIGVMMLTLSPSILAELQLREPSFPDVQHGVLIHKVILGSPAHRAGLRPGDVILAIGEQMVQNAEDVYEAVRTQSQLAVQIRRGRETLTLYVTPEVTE
Chain of MAGI2_2, Q86UL8 (Q86UL8 410-522): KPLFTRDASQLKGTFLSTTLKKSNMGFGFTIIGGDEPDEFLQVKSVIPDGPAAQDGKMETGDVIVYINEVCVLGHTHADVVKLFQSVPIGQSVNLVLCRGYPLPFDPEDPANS
Chain of MAGI1_2, Q96QZ7 (Q96QZ7 456-580): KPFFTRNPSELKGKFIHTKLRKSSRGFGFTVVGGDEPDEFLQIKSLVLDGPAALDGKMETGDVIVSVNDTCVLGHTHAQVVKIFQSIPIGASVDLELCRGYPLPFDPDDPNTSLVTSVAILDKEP
Chain of TJP1_3, Q07157 (Q07157 416-512): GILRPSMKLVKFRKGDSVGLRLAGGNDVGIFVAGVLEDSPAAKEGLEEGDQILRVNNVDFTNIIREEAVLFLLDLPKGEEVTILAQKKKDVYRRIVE

B1: PODXL, O00592 (peptide)
chain: DLDEEEDTHL
pKd (APBA2_1, Q99767; [1]): below the threshold | pKd (CASK, O14936; [1]): below the threshold | pKd (DFNB31_1, Q9P202; [1]): below the threshold | pKd (DFNB31_3, Q9P202; [1]): below the threshold | pKd (DLG1_1, Q12959; [1]): 3.63 | pKd (DLG2_2, Q15700; [1]): below the threshold | pKd (DLG3_1, Q92796; [1]): below the threshold | pKd (FRMPD2_3, Q68DX3; [1]): below the threshold | pKd (GOPC, Q9HD26; [1]): below the threshold | pKd (GORASP1, Q9BQQ3; [1]): below the threshold | pKd (HTRA2, O43464; [1]): 3.52 | pKd (Inadl_5, Q8NI35; [1]): below the threshold | pKd (Inadl_8, Q8NI35; [1]): below the threshold | pKd (Inadl_9, Q8NI35; [1]): below the threshold | pKd (LDB3, O75112; [1]): 3.49 | pKd (LIN7C, Q9NUP9; [1]): below the threshold | pKd (LNX2_2, Q8N448; [1]): 3.48 | pKd (MAGI1_2, Q96QZ7; [1]): below the threshold | pKd (MAGI2_2, Q86UL8; [1]): below the threshold | pKd (MAGI2_6, Q86UL8; [1]): below the threshold | pKd (MAST1, Q9Y2H9; [1]): 4.19 | pKd (MPP2, Q14168; [1]): below the threshold | pKd (MPP6, Q9NZW5; [1]): below the threshold | pKd (NOS1, P29475; [1]): below the threshold | pKd (PICK1, Q9NRD5; [1]): below the threshold | pKd (PTPN13_1, Q12923; [1]): below the threshold | pKd (PTPN3, P26045; [1]): 3.85 | pKd (SNTA1, Q13424; [1]): 3.63 | pKd (TJP1_3, Q07157; [1]): below the threshold

B2: MTMR1, Q13613 (peptide)
chain: HSATSVHTSV
pKd (APBA2_1, Q99767; [2]): below the threshold | pKd (CASK, O14936; [2]): below the threshold | pKd (DFNB31_1, Q9P202; [2]): 3.66 | pKd (DFNB31_3, Q9P202; [2]): below the threshold | pKd (DLG1_1, Q12959; [2]): 4.26 | pKd (DLG2_2, Q15700; [2]): 3.88 | pKd (DLG3_1, Q92796; [2]): 3.9 | pKd (FRMPD2_3, Q68DX3; [2]): below the threshold | pKd (GOPC, Q9HD26; [2]): 3.75 | pKd (GORASP1, Q9BQQ3; [2]): below the threshold | pKd (HTRA2, O43464; [2]): below the threshold | pKd (Inadl_5, Q8NI35; [2]): below the threshold | pKd (Inadl_8, Q8NI35; [2]): 3.88 | pKd (Inadl_9, Q8NI35; [2]): 3.57 | pKd (LDB3, O75112; [2]): below the threshold | pKd (LIN7C, Q9NUP9; [2]): below the threshold | pKd (LNX2_2, Q8N448; [2]): 3.96 | pKd (MAGI1_2, Q96QZ7; [2]): 3.52 | pKd (MAGI2_2, Q86UL8; [2]): 3.48 | pKd (MAGI2_6, Q86UL8; [2]): 3.66 | pKd (MAST1, Q9Y2H9; [2]): 3.67 | pKd (MPP2, Q14168; [2]): below the threshold | pKd (MPP6, Q9NZW5; [2]): below the threshold | pKd (NOS1, P29475; [2]): 3.55 | pKd (PICK1, Q9NRD5; [2]): below the threshold | pKd (PTPN13_1, Q12923; [2]): below the threshold | pKd (PTPN3, P26045; [2]): 4.16 | pKd (SNTA1, Q13424; [2]): 3.65 | pKd (TJP1_3, Q07157; [2]): below the threshold

Source: publication PMC9482650, “Quantitative fragmentomics allow affinity mapping of interactomes” (Nature Communications, 2022)
